# B1: Soluble form of the VLDL receptor containing repeats 1 to 8 (domain or fragment)
# chain: not shown
# notes: also called VLDLR 1 to 8; recombinant soluble VLDLR
# B2: LRP1 cluster IV (domain or fragment)
# chain: not shown
# B3: LRP1 cluster III (domain or fragment)
# chain: not shown
# B4: LRP1 cluster II (domain or fragment)
# chain: PQCQPGEFACANSRCIQERWKCDGDNDCLDNSDEAPALCHQHTCPSDRFKCENNRCIPNRWLCDGDNDCGNSEDESNATCSARTCPPNQFSCASGRCIPISWTCDLDDDCGDRSDESASCAYPTCFPLTQFTCNNGRCININWRCDNDNDCGDNSDEAGCSHSCSSTQFKCNSGRCIPEHWTCDGDNDCGDYSDETHANCTNQATRPPGGCHTDEFQCRLDGLCIPLRWRCDGDTDCMDSSDEKSCEGVTHVCDPSVKFGCKDSARCISKAWVCDGDNDCEDNSDEENCESLACRPPSHPCANNTSVCLPPDKLCDGNDDCGDGSDEGELC
# Biological target: T1, SARS-CoV-2 spike protein S1 subunit (Val16-Arg685) fused to the Fc region of mouse IgG1 (SARS-CoV-2, UniProt P0DTC2 16-685)
# T1 construct: The SPR methods name S1-mFc for LRP1, VLDLR and LRP2; I took it as the S1 subunit of all SPR experiments; also called S1-mFc; Spike S1 subunit; source: bought: Sino Biological; not shown: Fc (mouse IgG1), C-terminal, kept
# Assay: SPR; Biacore 3000; receptor amine-coupled to CM5 chip; ligand flowed in HBS-P (0.01 M HEPES pH 7.4, 0.15 M NaCl, 0.005% P20) with 1 mM CaCl2, 10 ul/min, 25 C; kinetic fit to a 1:1 Langmuir model
# Settings: both partners purified
Binder,Kd [nM],koff [s⁻¹],kon [M⁻¹ s⁻¹]
B1,5,0.00027,110000
B2,67,0.00066,9800
B3,22,0.00027,12000
B4,33,0.00042,13000

# Reference: publication PMC12192683, “The LDL receptor-related protein 1 (LRP1) facilitates ACE2-mediated endocytosis of SARS-CoV2 spike protein-containing pseudovirions” (The Journal of Biological Chemistry, 2025)
